Target: T1, Suc-AEPF-pNA peptide substrate
T1 chain: AEPF

B1: mutant PIN1 PPIase (K77Q/K82Q) (protein)
chain: GSHMGKNGQGEPARVRCSHLLVKHSQSRRPSSWRQEQITRTQEEALELINGYIQKIKSGEEDFESLASQFSDCSSAKARGDLGAFSRGQMQKPFEDASFALRTGEMSGPVFTDSGIHIILRTE
Km: The Km for this substrate was much higher than 100 µM ([S]<<Km)
rate (rate constant k of the peptidyl-prolyl isomerase reaction): both wild type human PIN1 and mutant PIN1 PPIAse, at 0.033 nM with 100 µM Suc-AEPF-pNA, had a rate of 0.2
